From patent publication US20030175364A1, “Process for binding carotenoids to proteins and the products thereof” (priority 2002, published 2003) come the findings set out here.

This experiment can be described thus: Binding of lutein to selected proteins at ng scale (hexane extraction, absorbance at 280 and 446 nm). The protocol: The carotenoid used in this Example 3 was lutein in dry cake form (Kemin Foods, L.C., Des Moines, Iowa). The cake was dissolved in THF at a concentration of approximately 5.28 mM (3 mg lutein in 1 ml THF). Four hundred nanograms of a selected protein (bovine and chicken albumin, gamma-globulins, Kunitz inhibitor, Bowman-Birk inhibitor, whey, and soy protein isolates 873 and 891 from Archer Daniels Midland, DeKalb, Ill.) were added to 200 μl Tris buffer (1.74 g Trizma crystals and 0.42 g calcium chloride added to 250 ml de-ionized H2O, pH 8.74) together with 2 μl of the lutein/THF solution. These reaction solutions were prepared in microcentrifuge tubes (1.5 ml), mixed, and allowed to react at 4° C., overnight, and in the dark. In addition, all reactions were performed in the presence of an alternative metal ion selected from the group Mg^++, Mn^++, Fe^+++, K^+, and Ca^++(MgCl2 6H2O, MnCl24H2O, FeCl3 6H2O, KCl, and CaCl2) at 60 μM concentration.
The hexane wash, vortex and centrifuge procedure was repeated six times. The supernatant was extracted and combined from all six washes and used later to compare absorbance vs. aqueous phase.
Protein and lutein content in the protein solutions and solvents used for extraction were determined by measuring the absorbance at 280 and 446 nm using a spectrophotometer.
The results are compiled and are reported in weight:weight or mol:mol (when available) ratios.

As to Bovine Serum Albumin: bovine albumin, the “Lutein/Protein Ratio mol/mol” value reads like this: (Ca^2+ 60 μM) 506 mol/mol; (Fe^3+ 60 μM) 365 mol/mol; (K^+ 60 μM) 383 mol/mol; (Mg^+ 60 μM) 294 mol/mol; (w/o metal ions) 306 mol/mol. In addition, the “Lutein/Protein Ratio w/w” value by setting is: (Ca^2+ 60 μM) 4.29 w/w; (Fe^3+ 60 μM) 3.1 w/w; (K^+ 60 μM) 3.24 w/w; (Mg^+ 60 μM) 2.49 w/w; (w/o metal ions) 2.59 w/w.

B1: Kunitz: soybean Kunitz proteinase inhibitor (protein, UniProt P01070 25-205, looked up)
Trypsin inhibitor A: DFVLDNEGNPLENGGTYYILSDITAFGGIRAAPTGNERCPLTVVQSRNELDKGIGTIISSPYRIRFIAEGHPLSLKFDSFAVIMLCVGIPTEWSVVEDLPEGPAVKIGENKDAMDGWFRLERVSDDEFNNYKLVFCPQQAEDDKCGDIGISIDHDDGTRRLVVSKNKPLVVQFQKLDKESL
In the case of B1, the “Lutein/Protein Ratio mol/mol” value runs as follows: (Ca^2+ 60 μM) 31 mol/mol; (Fe^3+ 60 μM) 29 mol/mol; (K^+ 60 μM) 24 mol/mol; (Mg^+ 60 μM) 29 mol/mol; (w/o metal ions) 46 mol/mol. Besides, the “Lutein/Protein Ratio w/w” value (Ca^2+ 60 μM) is 0.78 w/w; the “Lutein/Protein Ratio w/w” value (Fe^3+ 60 μM) is 0.74 w/w; the “Lutein/Protein Ratio w/w” value (K^+ 60 μM) amounted to 0.6 w/w; the “Lutein/Protein Ratio w/w” value (Mg^+ 60 μM) was found to be 0.74 w/w; the “Lutein/Protein Ratio w/w” value (w/o metal ions) was determined as 1.17 w/w.

B2: Chicken Serum Albumin: chicken albumin (protein, UniProt P19121 24-615, looked up)
Albumin: FARDAEHKSEIAHRYNDLKEETFKAVAMITFAQYLQRCSYEGLSKLVKDVVDLAQKCVANEDAPECSKPLPSIILDEICQVEKLRDSYGAMADCCSKADPERNECFLSFKVSQPDFVQPYQRPASDVICQEYQDNRVSFLGHFIYSVARRHPFLYAPAILSFAVDFEHALQSCCKESDVGACLDTKEIVMREKAKGVSVKQQYFCGILKQFGDRVFQARQLIYLSQKYPKAPFSEVSKFVHDSIGVHKECCEGDMVECMDDMARMMSNLCSQQDVFSGKIKDCCEKPIVERSQCIMEAEFDEKPADLPSLVEKYIEDKEVCKSFEAGHDAFMAEFVYEYSRRHPEFSIQLIMRIAKGYESLLEKCCKTDNPAECYANAQEQLNQHIKETQDVVKTNCDLLHDHGEADFLKSILIRYTKKMPQVPTDLLLETGKKMTTIGTKCCQLGEDRRMACSEGYLSIVIHDTCRKQETTPINDNVSQCCSQLYANRRPCFTAMGVDTKYVPPPFNPDMFSFDEKLCSAPAEEREVGQMKLLINLIKRKPQMTEEQIKTIADGFTAMVDKCCKQSDINTCFGEEGANLIVQSRATLGIGA
Consider B2, for which the “Lutein/Protein Ratio mol/mol” value is 67 mol/mol (Ca^2+ 60 μM); 71 mol/mol (Fe^3+ 60 μM); 95 mol/mol (K^+ 60 μM); 116? mol/mol (Mg^+ 60 μM); 105 mol/mol (w/o metal ions). Also, the “Lutein/Protein Ratio w/w” value (Ca^2+ 60 μM) was 0.84 w/w; the “Lutein/Protein Ratio w/w” value (Fe^3+ 60 μM) is on record as 0.9 w/w; the “Lutein/Protein Ratio w/w” value (K^+ 60 μM) is recorded as 1.2 w/w; the “Lutein/Protein Ratio w/w” value (Mg^+ 60 μM) is given as 1.16 w/w; the “Lutein/Protein Ratio w/w” value (w/o metal ions) worked out at 1.33 w/w.
